Laboratory results as given in the DeepSol protein solubility set.

experiment: soluble on expression in E. coli; label from the status in PepcDB or PDB records

Row | Sequence | soluble on expression in E. coli
1 | MDRDELVRYLDAYLRIQDFPQDPSLNGLQVEGKRTVRKVGAAVDAGEAIFRKALEEEVDFLIVHHGLFWGKPFPIVGHHKRRLETLFQGGINLYAAHLPLDAHEEVGNNFVLARELGLVDLTPWDVGVKGRFPQPTPLLQVADRLGQLTGMQPLVHQGGLDHVETVILVSGSGTGLLPKVDADLFVTGEPKHSVFHETFERGLNVIYAGHYDTETFGVKALAAHLEARFGLPWVFLDHPTGL | soluble
2 | MYFRLESQFSINGSMIVLINGAEPSLESHVAFYETGTFTVEQGEMRMIELKYQSTMENIHAFLDVVTGAIDIHLSPCKSQETDIFYSNLAAGSHRIDIDLKTMMDNVSVLLKKNVSKLHKAKR | not soluble
3 | MSLAWDEGKPRIITLTMNPALDITTSVDVVRPTEKMRCGAPRYDPGGGGINVARIVHVLGGCSTALFPAGGSTGSLLMALLGDAGVPFRVIPIAASTRESFTVNESRTAKQYRFVLPGPSLTVAEQEQCLDELRGAAASAAFVVASGSLPPGVAADYYQRVADICRRSSTPLILDTSGGGLQHISSGVFLLKASVRELRECVGSELLTEPEQLAAAHELIDRGRAEVVVVSLGSQGALLATRHASHRFSSIPMTAVSGVGAGDAMVAAITVGLSRGWSLIKSVRLGNAAGAAMLLTPGTAACNRDDVERFFELAAEPTEVGQDQYVWHPIVNPEASPEGHHHHHH | soluble
4 | MISPNHLILLFCVNCAFLVASDATPKRSPLGTMRFGKRAIADEMTFEEDGYYPSNVMWKRSTVDSSEPVIRDQRTPLGTMRFGKRSAEPFGTMRFGKRNPENDTPFGTMRFGKRASEDALFGTMRFGKREDGNAPFGTMKFGKREAEEPLGTMRFGKRSADDSAPFGTMRFGKRNPLGTMRFGK | not soluble
5 | MAHHHHHHMLYLKEIELGNYYICNLNDYPSEHCVVDYDPNKRIKFLCPIVHNEGEHMNTYNSSYCFTYEGIKDRLIIRNNEEPIYTTLPGIILENQILYDRYNLGIYIMPFKLEADMSIVCVCDTKKEYKGITPYIKINIKNSNNVLGVGSSDEYIKGCDFGNNKGKHQFLTSPQSHEHRSVCAILANPGDIVGINCINYNEDDPQNNDVTLEPSNCFSTVSFSLYTFSFVKMNINNILPDAKYYPETSAFPKDPNFKKFSTTSYLWIPANVPQAFFLVCSCKYAKGEGTAMYHVSSSTLEV | not soluble
6 | MNGELYLKKGLLQLNKKLYDEALATLNKVIELDDDLASLTSAKCILGEYYFIHQNYEKSKEFLSWICDRQDELEEEFDDLLSEEINTASVLMELIEKYKL | not soluble
7 | MRSERSERSDDTDGDTTALALKILVAGGFGVGKTTLVGAVSEIRPLRTEELLSEAGRLVDDTDGIDRKVTTTVAMDFGRITIRSGLSLYLFGTPGQDRFWFLWDELAQGALGAVVLADTRRLADCFPAVDYFEHRHIPFVVAVNCFTGARRHDEYSVLRALDLDPGTPVVLCDARDRDSGKEVLIRLVEYAGRMHTARLLDSVRLEHHHHHH | not soluble
8 | MEFMRVLLIAGGVSPEHEVSLLSAEGVLRHIPFPTDLAVIAQDGRWLLGEKALTALEAKAAPEGEHPFPPPLSWERYDVVFPLLHGRFGEDGTVQGFLELLGKPYVGAGVAASALCMDKDLSKRVLAQAGVPVVPWVAVRKGEPPVVPFDPPFFVKPANTGSSVGISRVERFQDLEAALALAFRYDEKAVVEKALSPVRELEVGVLGNVFGEASPVGEVRYEAPFYDYETKYTPGRAELLIPAPLDPGTQETVQELALKAYKVLGVRGMARVDFFLAEGELYLNELNTIPGFTPTSMYPRLFEAGGVAYPELLRRLVELALT | soluble
9 | MHTQYFPNRRPGRIQPLGIQQNTIYVYVKVKHVLEFYAIDIRLPYHWHQIAKLNISEMSYTFSTLSPDFRYIYVLFLRVAREMATFAVQRFDLENNGTADLFLLNAAEELYRVFEVPLDSVTLRCDSGGQLVLYDRSIVQGEIPFWTIRLEESTKTFRILKNSIPTAGDDTERNSALFTIAVDPVNRCFAKLMSPRTMLVYTEERKRWVEYHIPVEQSLQDIFGSDGFPVEEIRGIRETFGTHGHRMGALQTRLTFHDLNDVLVARCLHLHWNTTATVEFDHVNREIQVRLLAKFPLDDEVTRMFYLIASKEHHVFLGVYDTAIVHIKSPKLEEIVGWRMQKMLMRDGHKDEVLQISNYRQLLALALTKYADKDEDLAENLKNLGIEPPRKKLVVMEIELD | not soluble
10 | MTLNSLPLLRMGTVPLASRISTPLSLRLVSLSLERIRCAGTLRAPFPLPLYFSPGEQPLLHMALPLAARQHFLEHGYAIVPNVLSSSVVERIRSAALASTTARFRSFAHLPNVHSLLKSTPKCTDPLQDGLMSHLQKRRYILRYYRDMRRHKRRLRRAAKAFLNGRDVSELGREDMLRLSEMVCAEAQKVWSRGCTSTVKTDLQMLTAINQYRANAWMTNAQLEAVLRDNEEFVKPLSQLAEVVGGVARPVIFGDVPLLREAYGNPVGYHCLAPTIGTRTNARVSKGGGEATAVSMVLFTYTPTPLCLPPFVLRNSQHAVRRQYLHSVHAERLWRPFAPMEADIRDQLRRFQFDASVVGQPLLAAMAGPSSTPAAPVIGPGTVMVVDPHLMMAFGGNMTPQSEVLYRINVVAENARPHLMAPSWIRGWRTMPEEVHFASPVVFPPLYVE | not soluble
11 | MEETRPIDGLTDEDIREILTRYKKIALVGASPKPERDANIVMKYLLEHGYDVYPVNPKYEEVLGRKCYPSVLDIPDKIEVVDLFVKPKLTMEYVEQAIKKGAKVVWFQYNTYNREASKKADEAGLIIVANRCMMREHERLLGEK | soluble
12 | MTANRQQYQVESVKESNLEEIVQFLIDNFAQTEAILASLKIDDDKICLKELTVMLRDLVQDSLQCSSTCVIRDVTTRQIDGIALACKTSIFDKQIDRLCAYEFREQRVRDAVEFLKYVFNKLDVMYYLNEHRLYKPVFVALVCVRKELWGRGIGTTLMNHVKSAARTDSSDGLISLCSNERGHKLMKTYCPTDFAAVRYDAFKGEHLRPPIVMRPPETFHSVYAMLSKFN | soluble
13 | VLSARCHIRHIGSPGKDARCAHLSATLRPGIGISPTNVGNATVLADGTPAKPIQGAETMQRARHTGSCFSANARGPAISSGNPSRAGCGVPSSTTTPSSTPQAIRLLACTDSDALTVTRTAR | not soluble
14 | MIMEHEYRLEVRGYELDSFGHVNNAVYLNYLEAARWDLCSKLNLTDYNESNELFIVVIETNIKYIRELKLFDKVLIKTELTYEDDYLIFKHNIYNEVTKRKASVAKSKMVLVSKQRIIYEIPQFIKDKLDICAYGLEHHHHHH | not soluble
15 | MKSIYYLSADDLFQMNTFLIQTYSPAEQIGIKDRNALEMASNQPAQFVFDVDLYPTIEEKAAILMINIATKHCFYNANKRTAVMATDLFLQLNGYDFQLDTQEGVDLLVFIATYRSDFDQLKNDVSKVIRAKLNHTSSHLEHHHHHH | soluble
16 | MGSVVPHYSWFSGITQFQKGKEFQFAEGQGVPIANGIPASEQKGYWYRHNRRSFKTPDGQQKQLLPRWYFYYLGTGPHAGASYGDSIEGVFWVANSQADTNTRSDIVERDPSSHEAIPTRFAPGTVLPQGFYVEGSGRS | soluble
17 | MSLGKYFGTDGVRGVANTELTPELAFKLGRIGGYVLTKDKENPKVLIGRDTRISGEMLEGALVAGLLSIGVEVMRLGVISTPGVAFLTKAVSASAGVMISASHNPVADNGIKFFGPDGFKLLDEQEKEIETLLDQEDALPRPTGADLGQANDYFEGAQKYLQFLKQTVDEDFTGIHIALDCANGAASSLAPHLFADLEADISTMGTSPNGKNINDGVGSTHPEALAAFVNAKNADIGLAFDGDADRLIAVDEKGNIVDGDKILYICAKYMKEKGLLKQQTLVTTVMSNLGLYKALEALQIDTKQTAVGDRYVMEEMRKGGYNLGGEQSGHIIFLDHITTGDGMLSALQLVNIMKQTGKKLSELAEEWETFPQTLVNIRVTDKHAVTDNEKVPAVIKEVEQEMNGEGRVLVRPSGTEPLVRIMVEAKTEELCDAFVNKIADVVKAELGQEEGHHHHHH | soluble
18 | MSQATQQLDETRLALADALQAGNWDAIGELDQVCQVKIDQAMHDDERDEQALRVSLEQLLSLYNDMLSACRQQREAIGAELTGLQRASKGAKVYQMFG | not soluble
19 | GPHMADLLLNSTQFVQAFTYLIQNDKEFANKLHKAYLNGCSNLLLD | soluble
20 | MGHHHHHHSHMDLDSGDVKRRVHLFETQRRTKEEDPIIPFSDGPIISKWGAISRSSRTGYHTTDPVQATASQGSATKPISVSDYVPYVNAVDSRWSSYGNEATSSAHYVERDRFIVTDLSGHRKHSSTGDLLSLELQQAKSNSLLLQREANALAMQQKWNSLDEGRHLTLNLLSKEIELRNGEVKKLNLSASCLMYLFSAAASWLYHY | not soluble
21 | MATIRIHDEANTTIENQEEVASFLDSQEVIYEQWDITRLPEHLSEKYDLTEEEKQQILDTFETEIKDISTRRGYKAQDVISLSDSNPKLDELLENFKREHHHTDDEVRFIVSGHGIFVIQGQDGTFFDVRLNPGDLISVPENIRHYFTLQEDRKVVAVRIFVTTEGWVPIYEKDSVNQLEHHHHHH | not soluble
22 | MGSDKIHHHHHHMLKLLKPKHRSILGIDISSSAVKILEISGSGEDICVEGYGREEIPASALEGNIIKDVDVVANCIKKLVERLKFTSKNVALAVPDSAVISKVVQINEGLTDLEMEELVVIEADKYIPYPIDEINLDFEVLGHSAKSSSLLDVLIVASRAENVNTRVEAAHRAGLEPKVVDVESYAVERSVQQIAQELPASGQDKIVAIVDIGANYTHLFVLHGMRLIFSREEKFGGMQLVEAIAEHYHMNLEQAIALKNQGKLPEDYESAVLEPFKDMILLQIKRTLQFFYSTSQHGFVDHILLAGGMARQSGLAALIQEQLGVTTTVANPLSHMSFGKKVNLDVINSDAPTLMVACGLALRHVE | not soluble
23 | MGSDKIHHHHHHMGLLNLLSTNRNENLFLPAHGRGNSLPKNIKTLLRLRPGIWDLPELFEIGGPLISEGAIAESQKSSAYEVGVDRCWYGVNGATGLLQSSLLALAHPGQAVLMPRNIHKSCIQACLFGGLTPLLFDVPYLTDRGHASVMDRKWLQRVLKKAKEYEDDIAAVVLVNPTYQGYSADMESLIKEIHSHSLPVLVDEAHGAYLISQIRPDLPKSAISFGADLVVHSLHKSASGLVQSAVLWSQGDKVDPFKIERAIELLQTSSPSSLLLASCESSIKELLESKGIKKLRLCIEEAEMLKDFLIKNEVPLLKNSDPLKIILHTSKFGLSGIEVDKSFIRKRMIGELAEPGTLTFCLGLSSHKRLGKRFVRIWNEILKACGKQKPCFFKRPPFGIVSKPYKSYSDSWGSNFEKVNLKDAIGRISVEMVCPYPPGIPLLIPGEILDEARVDWLIEQKSFWPEQISDFVRVIS | not soluble
24 | MNVPSTSSTRGYAKYQIRSSGMPRVLANESDVFTLDDVDVDEETDELKPNRITITKEEEKSRLVECNLDSDEEEDKTPPKEDDKGQNIRLSSKNSSTVESKERCRLRDSFDLDNDDSLSDDLDLLPPIPGAPNANSSLCSKLHRFNCCNPRIPSKCTIM | soluble
25 | MAHHHHHHMCAPLYVSPAVQELAQLNSEAERLMLKRAWCVHTKAHLLRELPWAARDVAAYRVALREALQSFTESQQDAFLIDVVYAQFVCAEGGVLRACVQHALFLDLTYDVRLQQWTLVPLHWNIFTTSAGALLLTLQSVLAGPHAQTPCTPPAAPATAARAPLIAHSRAHGTVDSASPLPEASTPASFVRVDPHDREALHRFMRLAFEQEGLSGELHASNRLVCAVVMDTFAIQLQSLQQSFFTGGGLGRLVEMEVRPGTLISFHLSLPELFVPSAPVAHVKMTVAGGTVMLECVRGTDLSTRRVTLPLGTSSLVASGAVGVNTATWKSSMTVVDMEALLWQCVCASAPS | not soluble
